This note sets out measurements from FireProtDB (doi:10.1111/j.1432-1033.1992.tb16932.x).

For the data set the following is noted: Escherichia coli (strain K12), CD, reversible: yes, whole UniProt chain shown.
Where [1] appears, read: pH 3, Thermal, glycine-HCl 10 mM.
The mark [2] stands for this setting: pH 5.5, 25 °C, Urea, Sodium acetate 10 mM, NaCl 0.1 M.

B1: Ribonuclease HI wild type, P0A7Y4 (protein)
chain: MLKQVEIFTDGSCLGNPGPGGYGAILRYRGREKTFSAGYTRTTNNRMELMAAIVALEALKEHCEVILSTDSQYVRQGITQWIHNWKKRGWKTADKKPVKNVDLWQRLDAALGQHQIKWEWVKGHAGHPENERCDELARAAAMNPTLEDTGYQVEV
Regarding B1, under setting [1], the Tm is 49.8 °C and the “unfolding enthalpy (van 't Hoff)” value came to 98.1 kcal/mol. In addition, under setting [2], the denaturant m value stood at 1.96 kcal/mol/M, the “denaturant midpoint (higher = more stable)” value stood at 5.01 M and the unfolding free energy is 9.81 kcal/mol.
